In patent US20230416363A1:

Biological target: mouse PD-1 expressed on cells (mouse) (UniProt Q02242)
Experiment: cell-based or functional assay

mouse PD-1 expressed on cells (mouse), sequence (Q02242 25-288): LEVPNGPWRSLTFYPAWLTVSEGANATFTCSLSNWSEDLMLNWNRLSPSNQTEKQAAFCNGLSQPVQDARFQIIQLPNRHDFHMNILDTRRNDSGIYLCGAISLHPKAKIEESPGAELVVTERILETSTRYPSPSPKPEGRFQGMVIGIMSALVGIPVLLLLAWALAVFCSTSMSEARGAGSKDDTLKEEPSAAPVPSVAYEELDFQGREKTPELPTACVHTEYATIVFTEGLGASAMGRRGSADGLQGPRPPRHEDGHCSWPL

B1: RMP1-14 (antibody, from another filing, V domains shown)
VH: EVQLQESGPGLVKPSQSLSLTCSVTGYSITSSYRWNWIRKFPGNRLEWMGYINSAGISNYNPSLKRRISITRDTSKNQFFLQVNSVTTEDAATYYCARSDNMGTTPFTYWGQGTLVTVSS
VL: DIVMTQGTLPNPVPSGESVSITCRSSKSLLYSDGKTYLNWYLQRPGQSPQLLIYWMSTRASGVSDRFSGSGSGTDFTLKISGVEAEDVGIYYCQQGLEFPTFGGGTKLELK
An IC 50, Promega assay of 5.59 µg/mL was found for B1 in this work.
